The results in this text go back to patent publication US20250002577A1 (ONCORESPONSE, published 2025).

B1: B21H1-23 (antibody, human IgG1, kappa)
heavy: not shown
light: DIVMTQSPSSVSASVGDRVTITCQASGNIYSFLAWYQQKPGKAPKLLIYTASNLETGVPSRFSGSGSGTDFTLTISSLQPEDFATYYCLGGLYSSDVSYAFGGGTKVVIKRTVAAPSVFIFPPSDEQLKSGTASVVCLLNNFYPREAKVQWKVDNALQSGNSQESVTEQDSKDSTYSLSSTLTLSKADYEKHKVYACEVTHQGLSSPVTKSFNRGEC
notes: humanized IgG1/kappa, VH2+VL3
B2: B21H1-42 (antibody, human IgG1, kappa)
heavy: not shown
light: B1 light with V3Q, V11L, A43V, F71Y, P80S, F83A
notes: humanized IgG1/kappa, VH4+VL2
B3: B21H1-13 (antibody, human IgG1, kappa)
heavy: not shown
light: B1 light
notes: humanized IgG1/kappa, VH1+VL3
B4: B21H1-22 (antibody, human IgG1, kappa)
heavy: not shown
light: B1 light with V3Q, V11L, A43V, F71Y, P80S, F83A
notes: humanized IgG1/kappa, VH2+VL2

Numbering of substitutions follows the chain as printed.

What is called EC50 is the concentration giving half of the maximal effect.

T2 sequence (Q8N423 22-461 limits assumed): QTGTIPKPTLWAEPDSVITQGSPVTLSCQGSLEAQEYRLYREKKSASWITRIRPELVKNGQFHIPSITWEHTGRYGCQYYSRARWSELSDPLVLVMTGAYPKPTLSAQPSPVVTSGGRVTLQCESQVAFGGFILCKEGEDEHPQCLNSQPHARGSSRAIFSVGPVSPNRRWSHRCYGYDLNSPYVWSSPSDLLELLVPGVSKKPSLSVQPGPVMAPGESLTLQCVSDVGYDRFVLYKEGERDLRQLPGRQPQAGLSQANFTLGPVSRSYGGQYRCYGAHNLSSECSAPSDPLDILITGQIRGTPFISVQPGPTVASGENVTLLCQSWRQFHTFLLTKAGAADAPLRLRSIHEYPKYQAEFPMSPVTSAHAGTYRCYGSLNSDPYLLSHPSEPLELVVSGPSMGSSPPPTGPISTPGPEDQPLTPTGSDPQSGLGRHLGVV
T6 sequence (Q8NHL6 24-650): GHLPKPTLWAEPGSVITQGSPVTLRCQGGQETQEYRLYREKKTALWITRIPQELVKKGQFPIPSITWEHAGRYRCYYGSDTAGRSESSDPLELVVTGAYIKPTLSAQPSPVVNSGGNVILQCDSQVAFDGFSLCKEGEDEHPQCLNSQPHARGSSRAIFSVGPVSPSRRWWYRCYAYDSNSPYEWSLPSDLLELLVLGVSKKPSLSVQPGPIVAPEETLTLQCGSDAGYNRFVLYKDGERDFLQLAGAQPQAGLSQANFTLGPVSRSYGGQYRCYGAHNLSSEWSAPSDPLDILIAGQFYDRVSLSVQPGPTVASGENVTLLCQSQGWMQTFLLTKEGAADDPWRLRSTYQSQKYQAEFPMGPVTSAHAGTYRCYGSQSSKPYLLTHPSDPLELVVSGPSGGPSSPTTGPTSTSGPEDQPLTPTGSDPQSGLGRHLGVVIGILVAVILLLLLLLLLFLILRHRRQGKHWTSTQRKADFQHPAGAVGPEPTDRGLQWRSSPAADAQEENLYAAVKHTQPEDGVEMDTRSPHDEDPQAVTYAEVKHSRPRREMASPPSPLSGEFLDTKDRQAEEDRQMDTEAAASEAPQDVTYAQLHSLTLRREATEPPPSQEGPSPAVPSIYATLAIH
T10 sequence (Q6PI73 24-481): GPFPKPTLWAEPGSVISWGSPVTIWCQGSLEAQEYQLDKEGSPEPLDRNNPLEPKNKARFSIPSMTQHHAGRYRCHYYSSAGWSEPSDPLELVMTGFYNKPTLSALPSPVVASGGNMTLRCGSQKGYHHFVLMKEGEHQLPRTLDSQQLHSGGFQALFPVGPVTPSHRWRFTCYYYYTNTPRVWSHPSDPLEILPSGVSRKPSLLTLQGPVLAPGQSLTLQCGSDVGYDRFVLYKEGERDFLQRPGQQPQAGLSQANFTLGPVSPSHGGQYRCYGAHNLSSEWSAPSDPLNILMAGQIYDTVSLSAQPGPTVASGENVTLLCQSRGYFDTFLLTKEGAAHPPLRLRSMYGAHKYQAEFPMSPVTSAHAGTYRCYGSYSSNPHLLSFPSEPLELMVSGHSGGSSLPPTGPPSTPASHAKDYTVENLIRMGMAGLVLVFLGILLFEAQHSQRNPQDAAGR
T3 sequence (A6NI73 42-299): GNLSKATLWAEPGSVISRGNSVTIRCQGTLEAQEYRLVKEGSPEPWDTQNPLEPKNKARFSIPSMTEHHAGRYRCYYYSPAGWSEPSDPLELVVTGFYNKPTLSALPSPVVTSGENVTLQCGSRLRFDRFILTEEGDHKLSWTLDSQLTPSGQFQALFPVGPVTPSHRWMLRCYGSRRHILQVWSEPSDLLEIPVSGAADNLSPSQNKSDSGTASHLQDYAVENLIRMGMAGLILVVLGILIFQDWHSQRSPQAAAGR

The target of the first assay is T1, recombinant human LILRB1-His (human, UniProt Q8NHL6 24-458).
T1 construct: Bought protein; also called LILRB1 protein
T1 sequence (Q8NHL6 24-458 limits assumed): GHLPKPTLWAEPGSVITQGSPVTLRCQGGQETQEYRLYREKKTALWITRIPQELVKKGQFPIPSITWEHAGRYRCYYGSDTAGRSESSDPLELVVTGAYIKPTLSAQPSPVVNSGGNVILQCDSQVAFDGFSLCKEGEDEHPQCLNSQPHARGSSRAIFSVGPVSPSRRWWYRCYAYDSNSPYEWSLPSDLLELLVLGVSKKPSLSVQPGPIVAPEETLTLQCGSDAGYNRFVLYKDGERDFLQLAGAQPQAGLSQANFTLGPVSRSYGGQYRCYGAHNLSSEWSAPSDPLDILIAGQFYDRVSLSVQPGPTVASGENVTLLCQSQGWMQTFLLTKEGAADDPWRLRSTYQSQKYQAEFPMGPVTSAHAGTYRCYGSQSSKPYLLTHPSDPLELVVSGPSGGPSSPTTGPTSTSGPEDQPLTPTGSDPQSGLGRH
As to the kind of experiment: MSD ELISA, coated antigen, purified IgG1. As to the method: (§1) Recombinant human and cynomolgus LILRB1 proteins (R&D Systems, No. 8989-T2-050; ACROBiosystems, No. CDJ-C52H3) and recombinant human and cynomolgus LILRB2 proteins (ACROBiosystems, No. LI2-H5220; No. L12-C52H3) were diluted in PBS to 4 μg/mL and added to a multi-array 384-well high-binding plates (MSD, No. L21XA4) at 10 μL/well and incubated at 4° C. overnight. The plates were washed several times with Wash Buffer (0.05% Tween® 20 in PBS), using a microplate washer and then blocked with 70 μL/well of 5% BSA in PBS for 1 hour (h) at room temperature (RT) with shaking at 700 rpm. After blocking, 20 μL/well of anti-LILRB2/LILRB1 antibodies or isotype control were added to the plates, and the plates were sealed and incubated for 2 h at RT with shaking at 700 rpm. After primary antibody binding, plates were washed five times with 70 μL/well of Wash Buffer (0.05% Tween® 20 in PBS) using a microplate washer. Secondary detection antibody (SULFO-TAG™-labeled goat anti-human IgG antibody (MSD, No. R32AJ-1)) was diluted to 4 μg/mL in assay diluent (1% BSA in PBS) and 10 μL/well was added to plates and incubated at RT protected from light for 1 h, with shaking at 700 rpm. Following incubation, plates were washed five times with Wash Buffer, using a microplate washer. After removal of the final wash, 35 μL/well of MSD Gold Read Buffer B (MSD, No. R60AM-4) was added to all wells using a Multidrop combo washer/dispenser, and plates were read using MESO Sector 600MM instrument (MSD) within 5 minutes (min) after addition of Read Buffer. Signals as counts per minute (cpm) were recorded. EC₅₀ values were calculated using GraphPad Prism based on log concentration of the primary antibodies versus cpm values.
As to B1, the EC50 is 8.64 ng/mL.

Regarding B2, the EC50 came to 9.19 ng/mL.

On to B3, for which the 50% effective concentration (EC50) stood at 5.45 ng/mL.

Take B4: the EC50 came out at 8.18 ng/mL.

A further assay addresses T2, recombinant human LILRB2-His (human, UniProt Q8N423 22-461, limits assumed).
T2 construct: Bought protein; also called LILRB2 protein
As to the kind of experiment: MSD ELISA, coated antigen, purified IgG1. As to the method:
as §1
(In general: ELISA stands for enzyme-linked immunosorbent assay.)
On to B1, for which the half-maximal effective concentration (EC50) was 30.7 ng/mL.

Take B2: the half-maximal effective concentration (EC50) came to 28.4 ng/mL.

In the case of B3, the EC50 was 20.3 ng/mL.

On to B4, for which the concentration giving a half-maximal response (EC50) stood at 25.3 ng/mL.

The next assay has as its target T3, human LILRA5 on HEK293-6E cells (human, UniProt A6NI73 42-299).
T3 construct: whole, on cells; also called hLILRA5
Put plainly: flow cytometry, HEK293-6E transfectants. As to the method: (§2) To determine that the parent chimera anti LILRB2/1 antibody specifically binds to LILRB2 and LILRB1 and not to other LILRB and LILRA family members, a cross-reactivity assay was performed. Cross-reactivity was assessed by antibody binding to transiently transfected HEK293-6E cells by flow cytometry. Binding was evaluated to HEK293-6E cells transiently transfected with human LILRB-1, -2, -3, -4, and 5 plasmids (Origene, Nos. RC219949, RC217935, RC211228, RC220932, RC206516) or to cells transiently transfected with human LILRA-1, -2, -4, -5, and -6 plasmids (Origene, Nos. RC210808, RC205626, RC220452, RC212310 RC212965). […] At a concentration of 1 μg/mL, no binding of B21A1 or the humanized variants to LILRB-3, -4, or -5 was observed (Table 7). Additionally, no binding to LILRA-1, -2, -4, -5, or -6 was observed, confirming the specificity of B21A1 and its humanized variants to LILRB1 and LILRB2 (Table 8).
On the technique in general: In flow cytometry, cells or beads pass a laser one at a time.
Regarding B1, the MFI came to 75.3 MFI and the binding result is “no binding (tested: 1 µg/mL)”.

Turning to B2, the MFI worked out at 74.6 MFI and the binding result is “no binding (tested: 1 µg/mL)”.

In the case of B3, the MFI was determined as 75.7 MFI and the binding result is reported as “no binding (tested: 1 µg/mL)”.

Consider B4, for which the MFI was determined as 76.7 MFI and the binding result is given as “no binding (tested: 1 µg/mL)”.

In another assay the target is T4, human LILRB4 on HEK293-6E cells (human, UniProt Q8NHJ6 22-448).
T4 construct: whole, on cells; also called hLILRB4
As to the kind of experiment: flow cytometry, HEK293-6E transfectants. On the procedure: as §2
With B1, the MFI was 30.1 MFI and the binding result was “no binding (tested: 1 µg/mL)”.

For B2, the MFI came out at 30.9 MFI and the binding result was “no binding (tested: 1 µg/mL)”.

In the case of B3, the MFI came to 29.1 MFI and the binding result is “no binding (tested: 1 µg/mL)”.

Take B4: the MFI amounted to 29.9 MFI and the binding result is listed as “no binding (tested: 1 µg/mL)”.

In a further assay the target is T5, human LILRA2 on HEK293-6E cells (human, UniProt Q8N149 24-483).
T5 construct: whole, on cells; also called hLILRA2
T5 sequence (Q8N149 24-483): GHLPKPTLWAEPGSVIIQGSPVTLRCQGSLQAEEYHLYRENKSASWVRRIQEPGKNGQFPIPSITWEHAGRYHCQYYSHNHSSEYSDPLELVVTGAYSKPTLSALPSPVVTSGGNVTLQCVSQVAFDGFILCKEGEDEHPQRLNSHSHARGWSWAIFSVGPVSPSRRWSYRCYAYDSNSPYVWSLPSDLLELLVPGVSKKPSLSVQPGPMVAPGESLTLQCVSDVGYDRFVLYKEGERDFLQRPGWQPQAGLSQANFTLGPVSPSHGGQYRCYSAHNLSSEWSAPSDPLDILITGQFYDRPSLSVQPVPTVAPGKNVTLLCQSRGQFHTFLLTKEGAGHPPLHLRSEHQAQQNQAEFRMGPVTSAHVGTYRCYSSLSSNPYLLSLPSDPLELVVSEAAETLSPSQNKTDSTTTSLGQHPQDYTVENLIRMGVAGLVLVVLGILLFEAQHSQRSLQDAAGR
As to the kind of experiment: flow cytometry, HEK293-6E transfectants. As to the method: as §2
B1: the MFI amounted to 27.5 MFI and the binding result is on record as “no binding (tested: 1 µg/mL)”.

For the molecule B2, the MFI came to 27.1 MFI and the binding result was “no binding (tested: 1 µg/mL)”.

Turning to B3, the MFI turned out to be 25.8 MFI and the binding result was “no binding (tested: 1 µg/mL)”.

In the case of B4, the MFI stood at 27.6 MFI and the binding result is “no binding (tested: 1 µg/mL)”.

A further assay has as its target T6, human LILRB1 on cells (human, UniProt Q8NHL6 24-650).
T6 construct: whole, on cells; also called hLILRB1; LILRB1-expressing 721.221 cells
Put plainly: flow cytometry, HEK293-6E transfectants. On the procedure:
as §2
B1 yielded an MFI of 1060 MFI.

As for B2, the MFI was determined as 1160 MFI.

Take B3: the MFI was 1000 MFI.

B4 had an MFI of 914 MFI.

For the next assay, the target named is T7, human LILRA1 on HEK293-6E cells (human, UniProt O75019 17-489).
T7 construct: whole, on cells; also called hLILRA1
T7 sequence (O75019 17-489): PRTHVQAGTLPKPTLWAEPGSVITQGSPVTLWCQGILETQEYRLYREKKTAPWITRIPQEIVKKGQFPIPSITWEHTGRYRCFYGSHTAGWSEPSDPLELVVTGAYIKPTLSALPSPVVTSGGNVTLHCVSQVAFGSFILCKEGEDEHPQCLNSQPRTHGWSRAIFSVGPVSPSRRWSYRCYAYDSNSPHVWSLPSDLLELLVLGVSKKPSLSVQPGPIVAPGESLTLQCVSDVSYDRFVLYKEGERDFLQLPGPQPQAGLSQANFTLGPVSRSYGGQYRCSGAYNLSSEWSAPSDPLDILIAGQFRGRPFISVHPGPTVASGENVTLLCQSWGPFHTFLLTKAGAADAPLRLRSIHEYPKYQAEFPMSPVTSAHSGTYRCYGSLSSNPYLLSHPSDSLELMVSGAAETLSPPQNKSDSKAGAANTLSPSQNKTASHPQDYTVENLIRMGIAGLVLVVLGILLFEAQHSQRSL
As to the kind of experiment: flow cytometry, HEK293-6E transfectants. As to the method:
as §2
For B1, the MFI amounted to 210 MFI and the binding result is given as “no binding (tested: 1 µg/mL)”.

Consider B2, for which the MFI came to 345 MFI and the binding result was “no binding (tested: 1 µg/mL)”.

Take B3: the MFI is 201 MFI and the binding result is on record as “no binding (tested: 1 µg/mL)”.

In the case of B4, the MFI amounted to 295 MFI and the binding result is on record as “no binding (tested: 1 µg/mL)”.

The target in a further assay is T8, human LILRB5 on HEK293-6E cells (human, UniProt O75023 24-590).
T8 construct: whole, on cells; also called hLILRB5
T8 sequence (O75023 24-590): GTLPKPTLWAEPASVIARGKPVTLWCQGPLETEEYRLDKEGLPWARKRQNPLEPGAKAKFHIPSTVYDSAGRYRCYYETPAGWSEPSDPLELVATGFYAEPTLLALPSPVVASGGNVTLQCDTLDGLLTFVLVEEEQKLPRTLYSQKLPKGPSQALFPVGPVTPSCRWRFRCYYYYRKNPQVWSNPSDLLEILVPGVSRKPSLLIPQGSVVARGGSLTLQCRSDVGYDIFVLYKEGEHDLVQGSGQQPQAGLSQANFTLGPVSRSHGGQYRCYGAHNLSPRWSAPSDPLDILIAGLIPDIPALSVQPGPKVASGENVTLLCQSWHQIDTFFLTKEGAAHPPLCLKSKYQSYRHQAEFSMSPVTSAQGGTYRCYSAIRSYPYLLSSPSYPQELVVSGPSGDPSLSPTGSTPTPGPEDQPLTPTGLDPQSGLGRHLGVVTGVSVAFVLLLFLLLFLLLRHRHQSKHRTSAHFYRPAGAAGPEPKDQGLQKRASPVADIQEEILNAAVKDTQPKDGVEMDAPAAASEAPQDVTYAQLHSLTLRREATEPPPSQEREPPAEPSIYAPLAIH
As to the kind of experiment: flow cytometry, HEK293-6E transfectants. On the procedure:
as §2
Take B1: the MFI turned out to be 92 MFI and the binding result was “no binding (tested: 1 µg/mL)”.

For B2, the MFI worked out at 92.8 MFI and the binding result is “no binding (tested: 1 µg/mL)”.

Take B3: the MFI is 89.8 MFI and the binding result was “no binding (tested: 1 µg/mL)”.

Consider B4, for which the MFI worked out at 91.4 MFI and the binding result is recorded as “no binding (tested: 1 µg/mL)”.

In a further assay the target is T9, human LILRB3 on HEK293-6E cells (human, UniProt O75022 24-631).
T9 construct: whole, on cells; also called hLILRB3
T9 sequence (O75022 24-631): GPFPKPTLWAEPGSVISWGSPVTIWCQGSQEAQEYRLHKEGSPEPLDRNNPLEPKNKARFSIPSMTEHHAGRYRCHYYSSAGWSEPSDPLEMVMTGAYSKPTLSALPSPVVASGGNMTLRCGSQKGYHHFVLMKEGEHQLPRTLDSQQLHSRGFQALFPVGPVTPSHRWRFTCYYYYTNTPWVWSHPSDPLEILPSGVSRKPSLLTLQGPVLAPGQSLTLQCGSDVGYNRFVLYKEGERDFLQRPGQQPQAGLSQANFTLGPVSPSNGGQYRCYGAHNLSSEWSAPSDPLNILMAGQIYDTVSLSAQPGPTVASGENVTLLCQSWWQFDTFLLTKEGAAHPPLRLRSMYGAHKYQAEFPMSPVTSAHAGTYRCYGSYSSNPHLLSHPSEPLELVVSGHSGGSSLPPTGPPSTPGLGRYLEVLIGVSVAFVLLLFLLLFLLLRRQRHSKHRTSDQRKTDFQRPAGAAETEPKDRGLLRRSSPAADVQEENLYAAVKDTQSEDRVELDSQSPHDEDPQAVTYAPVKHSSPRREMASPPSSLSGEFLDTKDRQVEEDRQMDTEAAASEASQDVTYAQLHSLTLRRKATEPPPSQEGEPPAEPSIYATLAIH
As to the kind of experiment: flow cytometry, HEK293-6E transfectants. As to the method:
as §2
As to B1, the MFI is 96.2 MFI and the binding result is given as “no binding (tested: 1 µg/mL)”.

Take B2: the MFI was found to be 97 MFI and the binding result was “no binding (tested: 1 µg/mL)”.

B3: the MFI stood at 84.7 MFI and the binding result was “no binding (tested: 1 µg/mL)”.

With B4, the MFI came to 90.1 MFI and the binding result is “no binding (tested: 1 µg/mL)”.

A further assay concerns the target T10, human LILRA6 on HEK293-6E cells (human, UniProt Q6PI73 24-481).
T10 construct: whole, on cells; also called hLILRA6
As to the kind of experiment: flow cytometry, HEK293-6E transfectants. On the procedure:
as §2
Regarding B1, the MFI worked out at 140 MFI and the binding result is “no binding (tested: 1 µg/mL)”.

Consider B2, for which the MFI came out at 147 MFI and the binding result is reported as “no binding (tested: 1 µg/mL)”.

In the case of B3, the MFI came to 142 MFI and the binding result is “no binding (tested: 1 µg/mL)”.

With B4, the MFI was determined as 140 MFI and the binding result is listed as “no binding (tested: 1 µg/mL)”.

The target in the next assay is T11, human LILRB2 on cells (human, UniProt Q8N423 22-597).
T11 construct: whole, on cells; also called hLILRB2; LILRB2-HEK293T
T11 sequence (Q8N423 22-597): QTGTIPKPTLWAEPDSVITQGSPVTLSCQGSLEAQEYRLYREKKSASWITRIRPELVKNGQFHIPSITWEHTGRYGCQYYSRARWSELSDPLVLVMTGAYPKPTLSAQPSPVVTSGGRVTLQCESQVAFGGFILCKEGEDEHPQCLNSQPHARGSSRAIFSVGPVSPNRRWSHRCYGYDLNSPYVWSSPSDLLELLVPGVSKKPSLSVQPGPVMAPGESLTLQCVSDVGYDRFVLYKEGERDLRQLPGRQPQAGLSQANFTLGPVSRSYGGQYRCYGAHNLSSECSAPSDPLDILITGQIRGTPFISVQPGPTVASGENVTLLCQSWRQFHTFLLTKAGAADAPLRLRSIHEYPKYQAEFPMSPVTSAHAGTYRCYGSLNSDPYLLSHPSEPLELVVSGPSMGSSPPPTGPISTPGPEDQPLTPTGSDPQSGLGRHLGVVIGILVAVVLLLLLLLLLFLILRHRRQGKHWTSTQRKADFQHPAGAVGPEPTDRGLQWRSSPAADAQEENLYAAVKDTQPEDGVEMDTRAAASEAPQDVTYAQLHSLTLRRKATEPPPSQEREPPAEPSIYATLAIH
As to the kind of experiment: flow cytometry, HEK293-6E transfectants. On the procedure: as §2
Molecule B1 gave an MFI of 5430 MFI.

Molecule B2 had an MFI of 5630 MFI.

In turn, B3 came in with an MFI of 5370 MFI.

For B4, the MFI turned out to be 5590 MFI.

In another assay the target is T12, human LILRA4 on HEK293-6E cells (human, UniProt P59901 24-499).
T12 construct: whole, on cells; also called hLILRA4
Put plainly: flow cytometry, HEK293-6E transfectants. As to the method: as §2
B1: the MFI turned out to be 136 MFI and the binding result is “no binding (tested: 1 µg/mL)”.

On to B2, for which the MFI is 134 MFI and the binding result is “no binding (tested: 1 µg/mL)”.

Regarding B3, the MFI was determined as 130 MFI and the binding result is reported as “no binding (tested: 1 µg/mL)”.

For the molecule B4, the MFI was 132 MFI and the binding result is “no binding (tested: 1 µg/mL)”.

The next assay deals with T11, human LILRB2 on cells. Put plainly: flow cytometry, LILRB2-HEK293T cells, AF647-labelled antibody. On the procedure:
While LILRB2 expression is mostly restricted to myeloid cells, LILRB1 has a broader expression on immune cell subsets, including B cells, T cells and NK cells.
Frozen cells were removed from storage in vapor phase liquid nitrogen and thawed by gentle swirling in a water bath at 37° C., then resuspended in DMEM media with 10% FBS. Cells were placed in a 15 mL conical tube and centrifuged at 300×g for 5 min, then supernatant was removed. Cells were resuspended in DMEM+10% FBS at a cell density of 2×10⁵ cells/mL in a T75 flask for culturing, and incubated at 37° C., 5% CO₂ for 3 days before passaging. Cells were passaged when the cell density reached 1×10⁶ cell/mL. On the day of the assay, cells were centrifuged, then supernatant was removed. Cells were resuspended in Blocking Buffer B (FACS Buffer containing 10% FBS and 0.5 mg/mL human IgG1 (Athens Research, No. 16-16-090707-1M)+0.05% NaN₃, 5% (w/v)) in a 15 mL conical tube, then incubated at 4° C. for 30 min. […] Cells were incubated with antibodies at 4° C. for 1 h. Cells were washed twice in FACS Buffer (PBS containing 2 mM EDTA+1% FBS+0.05% NaN₃) and then stained with for 10 min with Zombie Violet™ fixable viability dye (BioLegend, No. 423114) at RT, washed with FACS Buffer and resuspend in 75 μL of FACS Buffer for acquisition on a BD FACSymphony™ or BD FACSCanto™ II flow cytometer (BD Biosciences), as described in Example 6.
B1 had an EC50 of 1.63 ng/mL.

As to B2, it took 1.25 ng/mL to reach a half-maximal effect (EC50).

B3 returned an EC50 of 2.23 ng/mL.

As for B4, the EC50 amounted to 1.07 ng/mL.
